Experimental data from patent US20230136252A1 (NANJING LEGEND BIOTECH, published 2023).

What was measured:
[1] = target: T1, human GPC2 on cells (SH-SY5Y, IMR-32, HEK293T/hGPC2) (human, UniProt Q8N158 24-554); assay: flow cytometry on SH-SY5Y cells, VHH-His detected with anti-His tag antibody (iFluor 647), median fluorescence intensity, four-parameter fit
T1 construct: whole, on cells; GPI-anchored proteoglycan on the cell surface; also called cell-surface human GPC2; GPC2 positive cells
T1 sequence (looked up): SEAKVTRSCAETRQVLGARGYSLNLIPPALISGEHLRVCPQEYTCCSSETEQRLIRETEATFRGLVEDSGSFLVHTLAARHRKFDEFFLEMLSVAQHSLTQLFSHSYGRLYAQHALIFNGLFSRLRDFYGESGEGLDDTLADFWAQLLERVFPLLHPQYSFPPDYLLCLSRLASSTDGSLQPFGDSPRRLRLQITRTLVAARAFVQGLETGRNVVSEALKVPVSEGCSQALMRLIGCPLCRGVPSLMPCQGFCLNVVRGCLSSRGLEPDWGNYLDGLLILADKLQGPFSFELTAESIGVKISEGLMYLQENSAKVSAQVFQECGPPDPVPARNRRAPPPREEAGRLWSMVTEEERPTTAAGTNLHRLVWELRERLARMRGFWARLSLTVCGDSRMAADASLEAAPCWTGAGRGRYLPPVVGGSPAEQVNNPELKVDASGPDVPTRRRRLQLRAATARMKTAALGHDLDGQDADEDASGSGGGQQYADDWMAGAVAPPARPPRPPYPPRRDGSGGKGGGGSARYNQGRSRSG
Description: (§1) Binding affinities of humanized VHH proteins AS70950VH6, AS71529VH6, AS72669VH6 and AS71529VH6-AS70950VH6 anti-GPC2 VHH-HIS proteins to human GPC2 expressing cells (SH-SY5Y and HEK293T/hGPC2) and cynomolgus monkey GPC2 expressing cell (HEK293T/cynoGPC2) were determined using flow cytometry. Briefly, serially diluted anti-GPC2 VHH-HIS proteins were incubated with 2×10⁵ target cells at 4° C. for 30 mins. After washing, cells were further labelled with THE™ His tag Antibody (iFluor 647) (Genescript, #A01802) at 4° C. for 30 mins. Fluorescence intensity was measured by flow cytometry. A four parameters variable slope curve was fitted to each group using GraphPad Prism for Windows Version 6.02. As shown in FIG. 4A-FIG. 4C, exemplary AS70950VH6, AS71529VH6, AS72669VH6 and AS71529VH6-AS70950VH6 specifically bind to SH-SY5Y, HEK293T/hGPC2 and HEK293T/cynoGPC2 in a dose-dependent manner.

[2] = target: T1, human GPC2 on cells (SH-SY5Y, IMR-32, …); assay: flow cytometry on HEK293T/hGPC2 cells, VHH-His detected with anti-His tag antibody (iFluor 647), median fluorescence intensity, four-parameter fit
Description: as §1

[3] = target: T2, cynomolgus monkey GPC2 on cells (HEK293T/cynoGPC2) (Cynomolgus monkey (Macaca fascicularis), UniProt A0A2K5X5G1 24-551); assay: flow cytometry on HEK293T/cynoGPC2 cells, VHH-His detected with anti-His tag antibody (iFluor 647), median fluorescence intensity, four-parameter fit
T2 construct: whole, on cells; also called Cynomolgus monkey (Macaca fascicularis) GPC2
T2 sequence: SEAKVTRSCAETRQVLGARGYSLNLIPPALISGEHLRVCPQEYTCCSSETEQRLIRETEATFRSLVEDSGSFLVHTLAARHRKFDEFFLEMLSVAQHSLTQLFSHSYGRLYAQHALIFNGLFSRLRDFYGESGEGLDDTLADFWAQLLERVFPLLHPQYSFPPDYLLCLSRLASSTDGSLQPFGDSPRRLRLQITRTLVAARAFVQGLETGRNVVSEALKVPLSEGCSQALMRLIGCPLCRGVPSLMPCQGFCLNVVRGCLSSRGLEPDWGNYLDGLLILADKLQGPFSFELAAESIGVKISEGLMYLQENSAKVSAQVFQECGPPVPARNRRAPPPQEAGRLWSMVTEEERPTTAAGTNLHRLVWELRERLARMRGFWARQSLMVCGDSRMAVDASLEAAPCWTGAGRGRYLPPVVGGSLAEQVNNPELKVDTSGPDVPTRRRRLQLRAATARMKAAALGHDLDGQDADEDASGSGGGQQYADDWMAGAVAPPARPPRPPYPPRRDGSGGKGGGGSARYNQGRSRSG
Description: as §1

[4] = target: T3, recombinant human GPC4-Fc (human, UniProt O75487 19-529, limits assumed); assay: ELISA on GPC4 coated plate; by paragraph 266 the VHH-His form with anti-His tag secondary was used on GPC4-Fc; the sheet's title prints the hIgG1Fc form and its legend 'rhGPC4-his'
T3 construct: Bought protein; also called RD System Cat #9195-GP; not shown: Fc
T3 sequence (looked up): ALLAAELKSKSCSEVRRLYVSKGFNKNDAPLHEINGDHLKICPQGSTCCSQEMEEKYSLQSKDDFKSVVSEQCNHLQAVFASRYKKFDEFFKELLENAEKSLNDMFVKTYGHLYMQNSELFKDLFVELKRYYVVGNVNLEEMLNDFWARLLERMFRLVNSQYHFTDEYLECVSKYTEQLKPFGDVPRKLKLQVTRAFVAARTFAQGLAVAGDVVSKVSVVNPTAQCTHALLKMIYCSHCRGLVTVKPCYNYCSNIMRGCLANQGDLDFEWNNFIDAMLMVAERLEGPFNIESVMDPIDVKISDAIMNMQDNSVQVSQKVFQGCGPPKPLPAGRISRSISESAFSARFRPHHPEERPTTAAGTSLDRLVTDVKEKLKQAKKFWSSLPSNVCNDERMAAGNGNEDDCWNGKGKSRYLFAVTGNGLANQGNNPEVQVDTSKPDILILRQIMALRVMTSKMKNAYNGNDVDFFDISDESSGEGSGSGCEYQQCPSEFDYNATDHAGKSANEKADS
Description: To evaluate the specificity of humanized anti-GPC2 VHH5 to recombinant human GPC2 protein, an ELISA-based binding assay was conducted to determine the differential target proteins binding of anti-GPC2 VHH5. Briefly, microplates were coated with 2 μg/mL recombinant human GPC1-His (RD System, Cat #4519-GP), GPC2-His (RD System, Cat #2304-GP), GPC3-His (ACRO, Cat #GP3-H5223), GPC4-Fc (RD System, Cat #9195-GP), GPC5-His (RD System, Cat #2607-G5/CF), GPC6-His (RD System, Cat #2845-GP) or recombinant mouse GPC2-His (RD System, Cat #2355-GP) proteins. Recombinant human protein coated plates were blocked with skim milk. Serially diluted humanized VHH-hIgG1Fc recombinant antibodies were added to each well of the plates and incubated at 4° C. for 1.5 h. Samples were further labelled with HRP-conjugated goat anti human IgG (H+L) secondary antibody (Genescript, Cat #A00166-1) and signal was developed with 3,3′,5,5′-Tetramethylbenzidine (TMB) substrate according to manufacturer's instruction. For the GPC4, VHH-His recombinant antibodies and anti-His tag secondary antibody (Genescript, Cat #A00612) were added to the GPC4-Fc coated plates instead. Optic density at 450 nm was measured by plate reader.

[5] = target: T4, recombinant human GPC2-His protein (human, UniProt Q8N158 24-554, limits assumed); assay: SPR, Biacore T200, GPC2-His amine-coupled to CM5 chip, VHH-hIgG1Fc as analyte, 1:1 model
T4 construct: Bought protein; The SPR paragraph gives no catalogue number for GPC2-His; also called recombinant Human Glypican 2 Protein; recombinant human GPC2 protein; not shown: His tag
T4 sequence (looked up): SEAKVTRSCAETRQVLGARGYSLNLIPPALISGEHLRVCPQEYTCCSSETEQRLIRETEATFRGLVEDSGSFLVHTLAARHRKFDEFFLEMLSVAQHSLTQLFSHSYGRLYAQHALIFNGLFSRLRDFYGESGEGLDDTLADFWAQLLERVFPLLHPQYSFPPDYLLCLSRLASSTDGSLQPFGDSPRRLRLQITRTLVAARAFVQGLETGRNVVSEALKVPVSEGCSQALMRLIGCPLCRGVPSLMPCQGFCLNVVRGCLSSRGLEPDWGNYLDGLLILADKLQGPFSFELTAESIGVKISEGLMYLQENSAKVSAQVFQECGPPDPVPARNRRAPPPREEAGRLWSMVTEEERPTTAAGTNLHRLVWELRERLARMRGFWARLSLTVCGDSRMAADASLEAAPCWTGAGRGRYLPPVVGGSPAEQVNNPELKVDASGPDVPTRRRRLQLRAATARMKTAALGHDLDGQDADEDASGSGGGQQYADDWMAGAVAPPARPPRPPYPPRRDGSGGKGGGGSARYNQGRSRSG
Description: Each of the exemplary anti-GPC2 VHH sequences was cloned into a vector comprising a human IgG1Fc fragment (hlgG1Fc) sequence to facilitate recombinant expression of anti-GPC2 VHH-hlgG1Fc. Recombinant proteins were obtained and purified for SPR assays. The affinity of each anti-GPC2 VHH-hIgG1Fc for GPC2 was determined by SPR using a BIACORE® T200 analytical system (GE Healthcare). Briefly, recombinant human GPC2-His protein was covalently coupled to a CM5(s) sensor chip using an amine coupling kit. Exemplary VHH-hIgG1Fc proteins were serially diluted in running buffer (10 mM HEPES, 150 mM NaCl, 3 mM EDTA, 0.05% Tween-20, pH 7.4) and injected over the chip cell at a flowrate of 100 μL/min for 100 seconds followed by buffer-only injection for 300 seconds to allow for antibody dissociation. The dissociation […] (KD) were determined using the BIACORE® T200 evaluation software version 3.0 (Langmuir binding, local fit, 1:1 binding model).

| Binder | EC50 (read off the curve) [1] [nM] | EC50 (read off the curve) [2] [nM] | EC50 (read off the curve) [3] [nM] | binding result [4] | Kd [5] [nM] | koff [5] [s⁻¹] | kon [5] [M⁻¹ s⁻¹] |
| --- | --- | --- | --- | --- | --- | --- | --- |
| AS70950VH6 anti-GPC2 VHH-His protein (VHH) VHH: EVQLVESGGGLVQPGGSLRLSCAISEFTYKNTCVGWFRQAPGKGREGVAAIDSDGNTNYVDSVKGRFTISQDNSKNTVYLQMNSLRAEDTAMYYCAAGAYCGRLLLWIGNYAYWGQGTLVTVSS | ~3 | ~2 | ~5 | no binding (tested: about 300 nM) |  |  |  |
| AS71529VH6 anti-GPC2 VHH-His protein (VHH) VHH: EVQLVESGGGLVQPGGSLRLSCAVSEYRYSSRYCMGWFRQAPGKGREGVAAIDSNGSADYVDSVKGRFTISKDNSKNTLYLQMNSLRAEDTAMYYCAADHLAYDCYSGATSVFRYWGQGTLVTVSS | ~100 |  |  |  |  |  |  |
| AS71529VH6-AS70950VH6 anti-GPC2 VHH-His protein (VHH, Tandem of two different anti-GPC2 VHH domains) EVQLVESGGGLVQPGGSLRLSCAVSEYRYSSRYCMGWFRQAPGKGREGVAAIDSNGSADYVDSVKGRFTISKDNSKNTLYLQMNSLRAEDTAMYYCAADHLAYDCYSGATSVFRYWGQGTLVTVSSGGGGSGGGGSGGGGSEVQLVESGGGLVQPGGSLRLSCAISEFTYKNTCVGWFRQAPGKGREGVAAIDSDGNTNYVDSVKGRFTISQDNSKNTVYLQMNSLRAEDTAMYYCAAGAYCGRLLLWIGNYAYWGQGTLVTVSSHHHHHH | ~3 | ~5 | ~5 |  |  |  |  |
| AS72669VH6 anti-GPC2 VHH-His protein (VHH) VHH: QVQLVESGGGVVQPGGSLRLSCAASRFTYSSYCMGWIRQAPGKGREGVAIFYTGGGRTYYADSVKGRFTISQDNSKNTLYLQMNSLRAEDTAVYYCVAGFYCSGGYWEGDFGYWGQGTLVTVSS | ~2 | ~4 | ~5 |  |  |  |  |
| AS78117VH4 VHH-His recombinant antibody (VHH, the result sentence still names the hIgG1Fc form) VHH: EVQLVESGGGLVQPGGSLRLSCIVSRYTYATYSMAWFRQAPGKGLEGVSGLDSVGATGYAESVKGRFTISRDNSKNTLYLQMNSLRAEDTAVYYCVVDPASAKVTYGSWSTPSYAYWGQGTLVTVSS |  |  |  | no binding (tested: about 300 nM) |  |  |  |
| AS79236VH6 VHH-His recombinant antibody (VHH, the result sentence still names the hIgG1Fc form) VHH: EVQLVESGGGLVQPGGSLRLSCAVSGYTYSSYCMAWFRQAPGKGLEGVASIDAGGRTTYVDSVKGRFTISKDNAKNSLYLQMNSLRAEDTAMYYCAVDVRTRCGGTWDGEAVYFPYWGQGTLVTVSS |  |  |  | no binding (tested: about 300 nM) |  |  |  |
| AS71529VH6-hIgG1Fc (Fc fusion, also called anti-GPC2 VHH-hIgG1Fc; not shown: human IgG1 Fc fragment (hIgG1Fc)) EVQLVESGGGLVQPGGSLRLSCAVSEYRYSSRYCMGWFRQAPGKGREGVAAIDSNGSADYVDSVKGRFTISKDNSKNTLYLQMNSLRAEDTAMYYCAADHLAYDCYSGATSVFRYWGQGTLVTVSS |  |  |  |  | 5.1 | 0.0044 | 850000 |
| AS71529VH6-AS70950VH6-hIgG1Fc (Fc fusion, Two different anti-GPC2 VHH domains in tandem, fused to a human IgG1Fc fragment; also called tandem anti-GPC2 VHH-hIgG1Fc; not shown: human IgG1 Fc fragment (hIgG1Fc)) EVQLVESGGGLVQPGGSLRLSCAVSEYRYSSRYCMGWFRQAPGKGREGVAAIDSNGSADYVDSVKGRFTISKDNSKNTLYLQMNSLRAEDTAMYYCAADHLAYDCYSGATSVFRYWGQGTLVTVSSGGGGSGGGGSGGGGSEVQLVESGGGLVQPGGSLRLSCAISEFTYKNTCVGWFRQAPGKGREGVAAIDSDGNTNYVDSVKGRFTISQDNSKNTVYLQMNSLRAEDTAMYYCAAGAYCGRLLLWIGNYAYWGQGTLVTVSS |  |  |  |  | 0.19 | 6.1e-05 | 320000 |
| AS72669VH6-hIgG1Fc (Fc fusion, also called anti-GPC2 VHH-hIgG1Fc; not shown: human IgG1 Fc fragment (hIgG1Fc)) QVQLVESGGGVVQPGGSLRLSCAASRFTYSSYCMGWIRQAPGKGREGVAIFYTGGGRTYYADSVKGRFTISQDNSKNTLYLQMNSLRAEDTAVYYCVAGFYCSGGYWEGDFGYWGQGTLVTVSS |  |  |  |  | 0.15 | 7.7e-05 | 520000 |
